This is an account of results in patent publication US20260139049A1 (PEDIATRIC IMMUNITY AND HEALTHCARE GUANGZHOU BIOTECHNOLOGY, published 2026).

The target of test [1] is T1, human CLDN6 (human, UniProt P56747 1-220).
T1 construct: whole, on cells; four-transmembrane protein; also called claudin-6; HEK293T-CLDN6
T1 sequence (looked up): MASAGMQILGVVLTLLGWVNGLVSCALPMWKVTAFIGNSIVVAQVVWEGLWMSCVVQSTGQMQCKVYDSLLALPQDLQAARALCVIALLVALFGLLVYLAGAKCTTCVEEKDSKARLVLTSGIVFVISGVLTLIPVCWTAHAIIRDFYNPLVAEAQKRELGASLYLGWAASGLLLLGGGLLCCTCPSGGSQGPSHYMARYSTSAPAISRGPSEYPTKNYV
The test can be described thus: FACS on HEK293T-CLDN6 cells.

For a further test, the target named is T2, human CLDN3 (human, UniProt O15551 1-220).
T2 construct: whole, on cells; also called HEK293T-CLDN3
T2 sequence (looked up): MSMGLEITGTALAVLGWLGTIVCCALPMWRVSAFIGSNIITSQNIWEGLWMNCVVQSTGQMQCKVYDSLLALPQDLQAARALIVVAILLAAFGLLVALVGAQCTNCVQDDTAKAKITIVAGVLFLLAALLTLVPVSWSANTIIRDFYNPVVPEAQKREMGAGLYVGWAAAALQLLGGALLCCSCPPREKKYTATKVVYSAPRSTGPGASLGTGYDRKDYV
Put plainly: FACS on 293T-CLDN3 cells, 10 µg/mL. Here is the method:
(§1) 50 μL of an antibody to be tested was added to a 96-well plate, then 1× 10⁵ cells were added to each well, and incubation was conducted at 4° C. for 1 h. Cells were washed three times with PBS. […] Finally, cells were washed three times with PBS, and signals were read using FACS. Binding capacities of the antibody to CLDN9, CLDN3, and CLDN4 were analyzed separately based on detection data.

For test [2], the target named is T1, human CLDN6. Put plainly: FACS on 293T-CLDN6 cells, 10 µg/mL.
The next test concerns the target T3, human CLDN9 (human, UniProt O95484 1-217).
T3 construct: whole, on cells; also called HEK293T-CLDN9
T3 sequence (looked up): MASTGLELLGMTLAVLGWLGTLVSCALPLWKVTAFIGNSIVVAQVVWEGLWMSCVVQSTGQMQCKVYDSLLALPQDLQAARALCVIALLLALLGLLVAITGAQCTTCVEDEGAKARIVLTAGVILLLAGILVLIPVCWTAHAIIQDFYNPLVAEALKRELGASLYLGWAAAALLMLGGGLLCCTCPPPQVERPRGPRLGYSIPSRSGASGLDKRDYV
The test can be described thus: FACS on 293T-CLDN9 cells, 10 µg/mL. The procedure: as §1

The target in test [3] is T1, human CLDN6. The test can be described thus: FACS on CLDN6 cells (same value as Table 3, HEK293T-CLDN6).
The target in test [4] is T1, human CLDN6. The test can be described thus: FACS on PA-1 tumour cells; target on the cells taken as CLDN6. The procedure:
(§2) 50 μL of an antibody to be tested was added to a 96-well plate, then 1×10⁵ cells were added to each well, and incubation was conducted at 4° C. for 1 h. Cells were washed three times with PBS. […] Finally, cells were washed three times with PBS, and signals were read using FACS. A binding capacity of the antibody to each tumor cell was analyzed based on detection data.

Test [5] deals with T1, human CLDN6. Described as above. The procedure: as §2
The source holds these as a separate data set.

Test [6] has as its target T1, human CLDN6. The test can be described thus: FACS on HepG2 tumour cells; target on the cells taken as CLDN6.
The target in test [7] is T1, human CLDN6. Put plainly: ratio of FACS Geom.Mean on 293T-CLDN6 over 293T-CLDN9, 10 µg/mL. Here is the method:
as §1

B1: IMAB027 (antibody, human IgG1, kappa, V domains shown)
VH: EVQLQQSGPELVKPGASMKISCKASGYSFTGYTMNWVKQSHGKNLEWIGLINPYNGGTIYNQKFKGKATLTVDKSSSTAYMELLSLTSEDSAVYYCARDYGFVLDYWGQGTTLTVSS
VL: IVLTQSPAIMSASPGEKVTITCSASSSVSYLHWFQQKPGTSPKLWVYSTSNLPSGVPARFGGSGSGTSYSLTISRMEAEDAATYYCQQRSIYPPWTFGGGTKLEIKR
notes: variable regions of mAb206-LCC on human IgG1 constant regions; also called benchmark antibody; control antibody
What is called EC50 is the concentration giving half of the maximal effect. For B1, the EC50 was 0.0469 µg/mL with human CLDN6 [1]; 0.213 µg/mL with human CLDN6 [3]; 0.223 µg/mL in the test with human CLDN6 [4]; 0.141 µg/mL with human CLDN6 [5]; 0.192 µg/mL in the test with human CLDN6 [6]. The values for the Geom.Mean with human CLDN3, with human CLDN6 [2] and with human CLDN9 were 151, 23600 and 1810, respectively. Moreover, the CLDN6/CLDN9 ratio with human CLDN6 [7] was 45.
